{"source": "paper PMC3544819", "about": "“Pax6 Interactions with Chromatin and Identification of Its Novel Direct Target Genes in Lens and Forebrain”", "binders": {"B1": {"name": "Kif1b site 1 (dsDNA)", "DNA 1": "ATGACCAATAGTAAAGCGTGGCTGGAAGAGGGG", "DNA 2": "CCCCTCTTCCAGCCACGCTTTACTATTGGTCAT"}, "B2": {"name": "Kif1b site 2 (dsDNA)", "DNA 1": "TAGGAAGCTTTCTGCTGGATACACTCATGCCTGAGCGTG", "DNA 2": "CACGCTCAGGCATGAGTGTATCCAGCAGAAAGCTTCCTA"}}, "target": "Pax6 PD/HD (UniProt P63015 4-269)", "sequence (P63015 4-269)": "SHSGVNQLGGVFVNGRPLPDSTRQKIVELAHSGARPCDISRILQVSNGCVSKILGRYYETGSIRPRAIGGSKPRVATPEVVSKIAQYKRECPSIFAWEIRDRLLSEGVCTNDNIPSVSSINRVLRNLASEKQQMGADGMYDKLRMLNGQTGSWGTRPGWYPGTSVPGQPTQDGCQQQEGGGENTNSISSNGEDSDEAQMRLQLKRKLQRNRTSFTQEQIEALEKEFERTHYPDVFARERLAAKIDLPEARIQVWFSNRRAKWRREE", "experiment": "EMSA; not given in the material", "details": "protein: recombinant; blunt"}
{"binder": "B1", "values": [{"measurement": "binding result", "result": "binds"}]}
{"binder": "B2", "values": [{"measurement": "binding result", "result": "binds"}]}
